B1: RSPH3 (parent)
chain: LELQRQREARKRALARKQAQEQLR

Variants of: B1
Experiment: protein stability index of a GFP-peptide fusion (GPS, HEK-293T) (PSI 1-6); higher = more stable
Settings: c terminus: a fixed tail appended
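Further: lentivirally expressed fusions sorted by FACS into six bins by GFP to DsRed ratio, PSI derived from sequencing read proportions per bin multiplied by bin number.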

Going from LQLQRQREARKRALARKQAQEQLR to LILQRQREARKRALARKQAQEQLR, the protein stability index falls from 3.93 to 2.34.

First: LYLQRQREARKRALARKQAQEQLR
Second: LDLQRQREARKRALARKQAQEQLR
The protein stability index of the first is lower: 2.52 for the first, 3.91 for the second.

Going from LALQRQREARKRALARKQAQEQLR to LRLQRQREARKRALARKQAQEQLR, the protein stability index rises from 3.1 to 3.57.

Going from LLLQRQREARKRALARKQAQEQLR to LHLQRQREARKRALARKQAQEQLR, the protein stability index rises from 2.6 to 3.

Going from LMLQRQREARKRALARKQAQEQLR to LCLQRQREARKRALARKQAQEQLR, the protein stability index rises from 2.92 to 3.13.

Compared with LVLQRQREARKRALARKQAQEQLR, LKLQRQREARKRALARKQAQEQLR is higher in protein stability index: 2.79 for the first, 4.11 for the second.

First: LNLQRQREARKRALARKQAQEQLR
Second: LWLQRQREARKRALARKQAQEQLR
The protein stability index of the first is higher: 3.69 for the first, 2.59 for the second.

Compared with LSLQRQREARKRALARKQAQEQLR, LFLQRQREARKRALARKQAQEQLR is lower in protein stability index: 3.56 for the first, 2.56 for the second.

First: LGLQRQREARKRALARKQAQEQLR
Second: LPLQRQREARKRALARKQAQEQLR
The protein stability index of the first is lower: 2.95 for the first, 3.58 for the second.

First: LTLQRQREARKRALARKQAQEQLR
Second: LELQTQREARKRALARKQAQEQLR
The protein stability index of the first is lower: 3.15 for the first, 4.17 for the second.

First: LELQIQREARKRALARKQAQEQLR
Second: LELQAQREARKRALARKQAQEQLR
The protein stability index of the first is lower: 3.77 for the first, 5.05 for the second.

Compared with LELQQQREARKRALARKQAQEQLR, LELQVQREARKRALARKQAQEQLR is higher in protein stability index: 4.32 for the first, 4.36 for the second.

Compared with LELQPQREARKRALARKQAQEQLR, LELQDQREARKRALARKQAQEQLR is higher in protein stability index: 3.89 for the first, 4.27 for the second.

First: LELQKQREARKRALARKQAQEQLR
Second: LELQWQREARKRALARKQAQEQLR
The protein stability index of the first is higher: 4.25 for the first, 4.02 for the second.

Compared with LELQCQREARKRALARKQAQEQLR, LELQFQREARKRALARKQAQEQLR is lower in protein stability index: 4.09 for the first, 3.91 for the second.

Compared with LELQNQREARKRALARKQAQEQLR, LELQSQREARKRALARKQAQEQLR is higher in protein stability index: 3.72 for the first, 4.16 for the second.

Going from LELQEQREARKRALARKQAQEQLR to LELQLQREARKRALARKQAQEQLR, the protein stability index falls from 3.68 to 3.25.

Going from LELQHQREARKRALARKQAQEQLR to LELQGQREARKRALARKQAQEQLR, the protein stability index rises from 4.21 to 4.34.

First: LELQMQREARKRALARKQAQEQLR
Second: LELNRQREARKRALARKQAQEQLR
The protein stability index of the first is higher: 4.03 for the first, 3.76 for the second.

Compared with LELARQREARKRALARKQAQEQLR, LELKRQREARKRALARKQAQEQLR is higher in protein stability index: 3.17 for the first, 3.55 for the second.

First: LELIRQREARKRALARKQAQEQLR
Second: LELYRQREARKRALARKQAQEQLR
The protein stability index of the first is lower: 2.95 for the first, 3.03 for the second.

Going from LELHRQREARKRALARKQAQEQLR to LELFRQREARKRALARKQAQEQLR, the protein stability index falls from 4.2 to 3.12.

Going from LELERQREARKRALARKQAQEQLR to LELSRQREARKRALARKQAQEQLR, the protein stability index falls from 4.3 to 4.27.

Going from LELGRQREARKRALARKQAQEQLR to LELWRQREARKRALARKQAQEQLR, the protein stability index rises from 3.41 to 3.43.

First: LELTRQREARKRALARKQAQEQLR
Second: LELLRQREARKRALARKQAQEQLR
The protein stability index of the first is higher: 4.06 for the first, 3.22 for the second.

Compared with LELDRQREARKRALARKQAQEQLR, LELVRQREARKRALARKQAQEQLR is lower in protein stability index: 3.96 for the first, 3.43 for the second.

Compared with LELPRQREARKRALARKQAQEQLR, LELCRQREARKRALARKQAQEQLR is higher in protein stability index: 3.51 for the first, 3.52 for the second.

Going from LELRRQREARKRALARKQAQEQLR to LELMRQREARKRALARKQAQEQLR, the protein stability index falls from 4.02 to 2.32.

Going from EELQRQREARKRALARKQAQEQLR to KELQRQREARKRALARKQAQEQLR, the protein stability index falls from 4.26 to 3.78.

Going from RELQRQREARKRALARKQAQEQLR to TELQRQREARKRALARKQAQEQLR, the protein stability index falls from 4.4 to 3.34.

First: SELQRQREARKRALARKQAQEQLR
Second: CELQRQREARKRALARKQAQEQLR
The protein stability index of the first is lower: 3.85 for the first, 4.05 for the second.

Compared with AELQRQREARKRALARKQAQEQLR, WELQRQREARKRALARKQAQEQLR is lower in protein stability index: 3.16 for the first, 2.71 for the second.

Compared with VELQRQREARKRALARKQAQEQLR, FELQRQREARKRALARKQAQEQLR is lower in protein stability index: 3.64 for the first, 3.22 for the second.

First: NELQRQREARKRALARKQAQEQLR
Second: IELQRQREARKRALARKQAQEQLR
The protein stability index of the first is higher: 4.27 for the first, 3.29 for the second.

First: HELQRQREARKRALARKQAQEQLR
Second: MELQRQREARKRALARKQAQEQLR
The protein stability index of the first is lower: 3.96 for the first, 4.24 for the second.

Compared with DELQRQREARKRALARKQAQEQLR, PELQRQREARKRALARKQAQEQLR is higher in protein stability index: 4.08 for the first, 4.45 for the second.

First: GELQRQREARKRALARKQAQEQLR
Second: YELQRQREARKRALARKQAQEQLR
The protein stability index of the first is higher: 4.14 for the first, 3.76 for the second.

Going from QELQRQREARKRALARKQAQEQLR to LEVQRQREARKRALARKQAQEQLR, the protein stability index rises from 3.82 to 4.29.

Compared with LETQRQREARKRALARKQAQEQLR, LEEQRQREARKRALARKQAQEQLR is higher in protein stability index: 4.35 for the first, 5.04 for the second.

Going from LECQRQREARKRALARKQAQEQLR to LESQRQREARKRALARKQAQEQLR, the protein stability index rises from 3.12 to 4.14.

First: LEPQRQREARKRALARKQAQEQLR
Second: LERQRQREARKRALARKQAQEQLR
The protein stability index of the first is higher: 4.18 for the first, 3.54 for the second.

Going from LEYQRQREARKRALARKQAQEQLR to LENQRQREARKRALARKQAQEQLR, the protein stability index falls from 3.89 to 3.86.

Going from LEWQRQREARKRALARKQAQEQLR to LEMQRQREARKRALARKQAQEQLR, the protein stability index rises from 3.52 to 3.6.

First: LEQQRQREARKRALARKQAQEQLR
Second: LEFQRQREARKRALARKQAQEQLR
The protein stability index of the first is higher: 3.9 for the first, 3.81 for the second.

Compared with LEDQRQREARKRALARKQAQEQLR, LEHQRQREARKRALARKQAQEQLR is higher in protein stability index: 4.14 for the first, 4.42 for the second.

Compared with LEAQRQREARKRALARKQAQEQLR, LEKQRQREARKRALARKQAQEQLR is higher in protein stability index: 4.14 for the first, 4.17 for the second.

First: LEGQRQREARKRALARKQAQEQLR
Second: LEIQRQREARKRALARKQAQEQLR
The protein stability index of the first is higher: 4.43 for the first, 3.74 for the second.

Reference: the supplement of paper PMC10567573
